Test results: publication doi:10.1101/2025.09.16.676457 (bioRxiv, 2025)

Biological target: T1, sLgBiT-Lc-GPR25 (without coexpression of TPST1 and TPST2) (Latimeria chalumnae (coelacanth), UniProt H3AQL3 1-365)
T1 sequence (looked up): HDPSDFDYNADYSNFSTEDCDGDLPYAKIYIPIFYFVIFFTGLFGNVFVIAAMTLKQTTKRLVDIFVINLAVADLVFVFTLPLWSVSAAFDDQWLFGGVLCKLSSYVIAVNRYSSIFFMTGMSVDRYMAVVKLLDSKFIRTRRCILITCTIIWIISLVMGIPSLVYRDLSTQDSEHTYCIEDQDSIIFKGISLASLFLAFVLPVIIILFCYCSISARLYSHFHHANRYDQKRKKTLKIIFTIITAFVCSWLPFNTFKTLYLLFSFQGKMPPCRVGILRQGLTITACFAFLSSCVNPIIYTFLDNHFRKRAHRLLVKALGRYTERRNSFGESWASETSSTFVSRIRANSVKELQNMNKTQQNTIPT
Assay: split reporter

- IC50: ~400 nM
B1: 6×His-Hs-CXCL17 (ligand, human, UniProt Q6UXB2 22-119, looked up)
chain: SSLNPGVARGHRDRGQASRRWLQEGGQECECKDWFLRAPRRKFMTVSGLPKKQCPCDHFKGNVKKTRHQRHHRKPNKHSRACQQFLKQCQLRSFALPL
